# According to PMC10350915, “Development of a New Class of CXCR4-Targeting Radioligands Based on the Endogenous Antagonist EPI-X4 for Oncological Applications” (Journal of Medicinal Chemistry, 2023):
# Square brackets hold non-standard residues; d marks the D form. Peptide text beside a SMILES is read from it. * marks the point of attachment. DOTA = O=C(O)CN1CCN(CC(=O)O)CCN(CC(=O)*)CCN(CC(=O)O)CC1
# Legend:
# in vivo = settings: female, athymic nude-Foxn1^nu/Foxn1^+, mouse, iv, 200 pmol, total radioactivity
# Experimental: (§1) Quantification of the total body distribution of ^177Lu-7 and ^68Ga-7 was performed in Jurkat xenografted mice after intravenous injection of 100 μL, 200 pmol, with […], respectively (n = 5). The mice were sacrificed at 1 h p.i. ^177Lu-7 and ^68Ga-7 accumulated mainly in the kidneys (83.1 ± 25.5 and 75.6 ± 30.3%IA/g, respectively, p = 0.59), liver (5.19 ± 1.08 and 4.08 ± 1.05%IA/g, respectively, p = 0.07) and tumor (2.25 ± 0.43 and 2.24 ± 0.57%IA/g, respectively, p = 0.97), as already seen in the SPECT/CT and PET/CT images (Figures 6 and 7). Uptake in the tumor was lower than for the kidneys and liver but higher as in all other tissues investigated. […] The uptake seen in the liver might be attributed, at least partially, to the fact that CXCR4 is constitutively expressed in the sinusoidal endothelial cells of the murine liver[38] or could be related to another yet-unknown mechanism previously reported for other CXCR4-targeting probes.[11],[39] Regretfully, there are no direct measurements available for the affinity of ^177Lu-7 with the murine CXCR4 (mCXCR4). This is relevant for assessing its total body distribution. However, we have shown that EPI-X4 and EPI-X4 derivatives are active in mouse models of inflammatory diseases[22],[25] and cancer.[40] More specifically, EPI-X4 derivatives such as JM#21 reduced immune cell influx in lungs of mice suffering from allergic asthma or reduced skin inflammation in a murine model of atopic dermatitis upon topical administration. […] Thus, we speculate that the DOTA conjugate of JM#173 (ligand-7) also cross-reacts to the mCXCR4. […] Last, but not the least, the uptake in the kidneys was predominant, and given the highly hydrophilic character of ^177Lu-7, is attributed, at least partially, to its excretion via this path.
# (§2) The experimental protocol involving animals was approved by the Veterinary Office (Department of Health) of the Cantonal Basel-Stadt (Approval No. 30515) in accordance with the Swiss regulations for animal treatment. Female athymic nude-Foxn1^nu/Foxn1^+ mice (Envigo, The Netherlands), 4–6 weeks old, were injected subcutaneously with 10^7 Jurkat cells in a 200 μL (1:1) mixture of PBS and Matrigel (CorningMatrigelMembrane matrix, Fischer Scientific, Germany) on the right shoulder. The tumors were allowed to grow for 3–4 weeks before commencement of the experiments.
# (§3) Quantitative biodistribution studies of ^177Lu-7 (100 μL, 200 pmol, 0.8–1 MBq) and ^68Ga-7 (100 μL, 200 pmol, 2–3 MBq) were performed after intravenous injection of the radioligand via the tail vein on Jurkat xenografts. […] 1 h after injection of the radioligand, mice were sacrificed, organs of interest and blood were collected, rinsed of excess blood, blotted dry, weighed, and counted in a γ-counter. The samples were counted against a suitable diluted aliquot of the injected solution as the standard and the results are expressed as percentage injected activity per gram of tissue (%IA/g). Statistical analysis between selected organs was performed by Welch’s t-test and p values <0.05 were considered statistically significant.
# Jurkat xenografts = assay: in vivo; settings: female, athymic nude-Foxn1^nu/Foxn1^+, mouse, iv, 200 pmol, 1 h
# Experimental: as §1, §2, §3
structure (smiles),measurement,setting,value
"CC[C@@H](C)[C@@H](N)C(=O)N[C@@H](CC(C)C)C(=O)N[C@@H](CCCNC(=N)N)C(=O)N[C@@H](Cc1c[nH]c2ccccc12)C(=O)N[C@@H](CO)C(=O)N[C@@H](CCCNC(=N)N)C(=O)N[C@@H](CCCCN)C(=O)N[C@@H](CCCCNC(=O)CN1CCN(CC(=O)O)CCN(CC(=O)O)CCN(CC(=O)O)CC1)C(N)=O [^177Lu-7, metal not drawn] (H-[dI]LRWSRKK(DOTA)-NH2; N-terminus assumed)",tissue uptake at 1 h,in vivo; uptake in blood,0.42 ± 0.12 %ID/g
same,tissue uptake at 1 h,in vivo; uptake in femur,1.06 ± 0.28 %ID/g
same,tissue uptake at 1 h,in vivo; uptake in heart,0.21 ± 0.05 %ID/g
same,tissue uptake at 1 h,in vivo; uptake in intestine,0.37 ± 0.1 %ID/g
same,tissue uptake at 1 h,in vivo; uptake in kidney,83.1 ± 25.5 %ID/g
same,tissue uptake at 1 h,in vivo; uptake in liver,5.19 ± 1.08 %ID/g
same,tissue uptake at 1 h,in vivo; uptake in muscle,0.27 ± 0.14 %ID/g
same,tissue uptake at 1 h,in vivo; uptake in pancreas,0.14 ± 0.02 %ID/g
same,tissue uptake at 1 h,in vivo; uptake in spleen,0.81 ± 0.16 %ID/g
same,tissue uptake at 1 h,in vivo; uptake in stomach,0.3 ± 0.06 %ID/g
same,tissue uptake at 1 h,in vivo; uptake in tumor,2.25 ± 0.43 %ID/g
same,uptake in adrenal,Jurkat xenografts,1.09 ± 0.42 % IA/g
